The values below come from patent US20090075929A1 (BOARD OF TRUSTEES OF THE UNIVERSITY OF ILLINOIS, published 2009).

Assay [1] has as its target T1, wild-type MADD (wtMADD), YFP-tagged, expressed in HEK293 or HeLa cells (Homo sapiens (Human), UniProt Q8WXG6 1-1647, phosphorylated in cells at S70, T173 and T1041 (recognized by anti-phospho S70, T173 and T1041 antibodies)).
T1 construct: Exogenous MADD detected with anti-YFP antibody; Order of MADD and YFP is uncertain; also called YFP-MADD; exogenous MADD; not shown: YFP tag
Kind of assay: co-IP from HeLa cells expressing MADD-YFP, western blot. The source says:
(§1) These proteins were separated by SDS-PAGE and subjected to western blot analysis to probe for DISC components.
(§2) Samples were lysed, and the lysates were normalized for protein concentration and pre-cleared. […] Complexes were subjected to immunoblotting (WB, Western blot).
On the technique in general: Immunoblotting shows a protein as a band on a membrane.

The target in assay [2] is T2, DR4 (death receptor 4, a TRAIL receptor), endogenous (UniProt O00220 24-468).
T2 construct: Endogenous protein immunoprecipitated or blotted from lysates of human cell lines; also called endogenous DR4; DRs
Description: IP of DR4 from HeLa lysates, immunoblot for FADD. The source says: DR4 and DR5 from HeLa and PA-1 cells respectively were immunoprecipitated and probed for known DISC components. […] Forty-eight-hour transduced HeLa cells and PA-1 cells were collected and lysed. Lysates were normalized for protein concentration, and DR4s/DR5s were immunoprecipitated using specific antibodies.

The target in assay [3] is T1, wild-type MADD (wtMADD), YFP-tagged, …. Description: co-IP with anti-IG20 antibody from HeLa cells expressing MADD-YFP, western blot; also not seen in the reverse IP with anti-caspase-8.
From the text: as §1, §2

B1: FADD, endogenous (other, UniProt Q13158 1-208, looked up)
chain: MDPFLVLLHSVSSSLSSSELTELKFLCLGRVGKRKLERVQSGLDLFSMLLEQNDLEPGHTELLRELLASLRRHDLLRRVDDFEAGAAAGAAPGEEDLCAAFNVICDNVGKDWRRLARQLKVSDTKIDSIEDRYPRNLTERVRESLRIWKNTEKENATVAHLVGALRSCQMNLVADLVQEVQQARDLQNRSGAMSPMSWNSDASTSEAS
Regarding B1, the binding result in assay [1] is recorded as “no binding”; in assay [2], “binds”.

B2: caspase-8 (pro-caspase-8, p55/53), endogenous (enzyme, UniProt Q14790 1-479, looked up)
chain: MDFSRNLYDIGEQLDSEDLASLKFLSLDYIPQRKQEPIKDALMLFQRLQEKRMLEESNLSFLKELLFRINRLDLLITYLNTRKEEMERELQTPGRAQISAYRVMLYQISEEVSRSELRSFKFLLQEEISKCKLDDDMNLLDIFIEMEKRVILGEGKLDILKRVCAQINKSLLKIINDYEEFSKERSSSLEGSPDEFSNGEELCGVMTISDSPREQDSESQTLDKVYQMKSKPRGYCLIINNHNFAKAREKVPKLHSIRDRNGTHLDAGALTTTFEELHFEIKPHDDCTVEQIYEILKIYQLMDHSNMDCFICCILSHGDKGIIYGTDGQEAPIYELTSQFTGLKCPSLAGKPKVFFIQACQGDNYQKGIPVETDSEEQPYLEMDLSSPQTRYIPDEADFLLGMATVNNCVSYRNPAEGTWYIQSLCQSLRERCPRGDDILTILTEVNYEVSNKDDKKNMGKQMPQPTFTLRKKLVFPSD
For the molecule B2, the binding result in assay [3] is “no binding”.
